From patent publication US20240401082A1 (Sanofi, published 2024)

Columns and labels:
[1] = target: T1, human complement C1s enzyme (activated C1s) (human, UniProt P09871 16-437; P09871 438-688); assay: cell-based or functional assay
T1 sequence 1: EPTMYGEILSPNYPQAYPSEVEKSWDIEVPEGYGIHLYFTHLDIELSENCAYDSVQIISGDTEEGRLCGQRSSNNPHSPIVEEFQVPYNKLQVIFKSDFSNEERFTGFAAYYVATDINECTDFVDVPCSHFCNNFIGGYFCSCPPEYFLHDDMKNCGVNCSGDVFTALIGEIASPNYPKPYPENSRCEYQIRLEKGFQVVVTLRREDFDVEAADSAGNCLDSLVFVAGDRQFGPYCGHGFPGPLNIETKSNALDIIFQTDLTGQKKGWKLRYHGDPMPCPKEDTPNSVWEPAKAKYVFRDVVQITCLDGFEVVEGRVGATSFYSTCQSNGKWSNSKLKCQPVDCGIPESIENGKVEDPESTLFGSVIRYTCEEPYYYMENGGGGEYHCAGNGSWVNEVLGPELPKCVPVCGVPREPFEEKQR
T1 sequence 2: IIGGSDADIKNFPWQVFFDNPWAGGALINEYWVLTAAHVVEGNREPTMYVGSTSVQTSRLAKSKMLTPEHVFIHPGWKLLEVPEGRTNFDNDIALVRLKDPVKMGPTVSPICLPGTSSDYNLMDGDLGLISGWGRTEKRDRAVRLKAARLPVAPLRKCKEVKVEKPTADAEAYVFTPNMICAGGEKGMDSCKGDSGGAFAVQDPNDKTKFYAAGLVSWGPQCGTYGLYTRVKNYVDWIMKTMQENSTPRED

[2] = target: T2, human complement factor Bb (human, UniProt P00751 260-764); assay: cell-based or functional assay
T2 sequence (P00751 260-764): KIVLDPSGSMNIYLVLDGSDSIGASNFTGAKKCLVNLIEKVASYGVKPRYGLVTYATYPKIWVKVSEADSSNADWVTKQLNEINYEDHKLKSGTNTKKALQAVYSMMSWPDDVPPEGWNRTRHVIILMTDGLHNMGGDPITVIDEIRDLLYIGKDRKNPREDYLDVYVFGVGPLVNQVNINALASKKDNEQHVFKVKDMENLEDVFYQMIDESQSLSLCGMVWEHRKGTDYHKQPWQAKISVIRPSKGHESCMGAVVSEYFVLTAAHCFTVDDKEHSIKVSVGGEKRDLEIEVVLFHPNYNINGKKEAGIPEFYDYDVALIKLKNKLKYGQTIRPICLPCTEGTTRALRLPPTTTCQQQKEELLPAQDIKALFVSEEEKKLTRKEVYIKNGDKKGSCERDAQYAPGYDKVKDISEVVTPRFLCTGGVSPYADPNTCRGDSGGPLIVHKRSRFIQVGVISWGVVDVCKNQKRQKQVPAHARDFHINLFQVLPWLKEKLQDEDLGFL

[3] = target: T1, human complement C1s enzyme (activated …); assay: cell-based or functional assay; remark: listed apart in the source
[4] = target: T2, human complement factor Bb; assay: cell-based or functional assay; remark: listed apart in the source
[5] = target: T1, human complement C1s enzyme (activated …); assay: BLI (Octet), biotinylated target on streptavidin sensor; partially purified protein
Description: (§1) Bio-layer interferometry (BLI) was used to assess the recombinant proteins' target engagement to and binding affinity for complement C1s enzyme (active C1s or “C1s” herein) and factor Bb (Bb) (Complement Technology, Tyler, TX, USA). C1s and Bb were biotinylated with EZ-Link™ Sulfo-NHS-LC-LC-Biotin (Thermo Fisher, Waltham, MA, USA) according to manufacturer instructions. Biotinylated C1s or Bb was loaded on Octet® Streptavidin (SA) Biosensors (Sartorius, Göttingen, Germany), followed by a concentration range of purified proteins. To assess dual target engagement, biotinylated active C1s or Bb was loaded onto sensors, followed by purified proteins (“first association phase”), followed by the non-captured complement target (Bb or active C1s, non-biotinylated; “second association phase”). The assays were performed at 30° C. using PBS with 0.1% Tween 20 as a diluent (FIG. 3).
(§2) The third expression construct, construct #9 (FIGS. 2B and 21), is composed of a bidirectional minCBA promoter driving expression of separate transcripts encoding human codon-optimized αBb scFab or αC1s scFab [αC1s scFab+αBb scFab], each followed by a bGH poly (A) signal.

[6] = target: T2, human complement factor Bb; assay: as above
Description: as §1, §2

[7] = target: T1, human complement C1s enzyme (activated …); assay: BLI (Octet), biotinylated target on streptavidin sensor
[8] = target: T2, human complement factor Bb; assay: as above
[9] = target: T1, human complement C1s enzyme (activated …); assay: cell-based or functional assay; remark: listed apart in the source
[10] = target: T2, human complement factor Bb; assay: cell-based or functional assay; remark: listed apart in the source
[11] = target: T1, human complement C1s enzyme (activated …); assay: cell-based or functional assay; remark: listed apart in the source
[12] = target: T2, human complement factor Bb; assay: cell-based or functional assay; remark: listed apart in the source
[13] = target: T1, human complement C1s enzyme (activated …); assay: BLI (Octet), biotinylated target on streptavidin sensor; protein purified to >98%
Description: as §1

[14] = target: T2, human complement factor Bb; assay: as above
Description: as §1

[15] = target: T1, human complement C1s enzyme (activated …); assay: SPR
[16] = target: T1, human complement C1s enzyme (activated …); assay: cell-based or functional assay; remark: listed apart in the source
[17] = target: T2, human complement factor Bb; assay: BLI (Octet), biotinylated target on streptavidin sensor; remark: listed apart in the source
[18] = target: T2, human complement factor Bb; assay: SPR, purified protein
[19] = target: T2, human complement factor Bb; assay: cell-based or functional assay; remark: listed apart in the source
[20] = target: T2, human complement factor Bb; assay: cell-based or functional assay; remark: listed apart in the source
[21] = target: T2, human complement factor Bb; assay: SPR
[22] = target: T2, human complement factor Bb; assay: BLI (Octet), biotinylated target on streptavidin sensor; partially purified mixture of the two scFabs from construct #9; mixture of the two scFabs from construct #9
Description: as §1, §2

[23] = target: T2, human complement factor Bb; assay: BLI (Octet), biotinylated target on streptavidin sensor; mixture of the two scFabs from construct #9
Description: as §1

cynomolgus Bb = target: T3, cynomolgus Bb (cynomolgus, UniProt A0A2K5TZY3 260-763); assay: method not given
T3 construct: Named only in the sentence that gives the KD; also called cynomolgus target
T3 sequence (A0A2K5TZY3 entry or part of it): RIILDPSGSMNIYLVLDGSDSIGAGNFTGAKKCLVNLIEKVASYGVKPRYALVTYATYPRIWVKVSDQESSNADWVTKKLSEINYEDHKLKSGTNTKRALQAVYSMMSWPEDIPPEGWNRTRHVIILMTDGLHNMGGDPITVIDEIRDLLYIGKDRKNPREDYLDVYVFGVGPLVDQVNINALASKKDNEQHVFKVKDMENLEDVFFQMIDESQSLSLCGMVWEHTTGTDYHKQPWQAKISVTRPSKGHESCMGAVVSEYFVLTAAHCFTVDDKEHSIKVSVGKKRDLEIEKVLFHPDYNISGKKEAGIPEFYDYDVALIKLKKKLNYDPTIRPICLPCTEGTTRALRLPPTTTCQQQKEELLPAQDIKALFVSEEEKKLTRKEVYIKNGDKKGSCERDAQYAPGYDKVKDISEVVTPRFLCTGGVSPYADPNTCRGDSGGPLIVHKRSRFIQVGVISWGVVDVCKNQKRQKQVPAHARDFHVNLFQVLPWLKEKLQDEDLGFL

B1: construct #14: αC1s scFab-(G4S)2-αBb scFv-CM (bispecific antibody)
chain: DIVLTQSPDSLAVSLGERATISCKASQSVDYDGDSYMNWYQEKPGQPPKILIYDASNLESGIPARFSGSGSGTDFTLTISSLEPEDFAIYYCQQSNEDPWTFGGGTKVEIKRTVAAPSVFIFPPSDEQLKSGTASVVCLLNNFYPREAKVQWKVDNALQSGNSQESVTEQDSKDSTYSLSSTLTLSKADYEKHKVYACEVTHQGLSSPVTKSFNRGECGGGGSGGGGSGGGGSGGGGSGGGGSGGGGSGGGGSQVQLVQSGAEVKKPGASVKLSCTASGFNIKDDYIHWVKKAPGQGLEWIGRIDPADGHTKYAPKFQVKVTITADTSTSTAYLELSSLRSEDTAVYYCARYGYGREVFDYWGQGTTVTVSSASTKGPSVFPLAPCSRSTSESTAALGCLVKDYFPEPVTVSWNSGALTSGVHTFPAVLQSSGLYSLSSVVTVPSSSLGTKTYTCNVDHKPSNTKVDKRVGGGGSGGGGSEVQLVESGGGLVKPGGSLRLSCAASGFTFSNYAMSWVREAPGKRLEWVATISNRGSYTYYPDSVKGRFTISRDNAKNSLYLQMNSLRAEDTALYYCARERPMDYWGQGTLVTVSSGGGGSGGGGSGGGGSDIQMTQSPSTLSASVGDRVTITCKASQDVGTAVAWYQKKPGKAPKLLIYWASTRHTGVPDRFSGSGSGTDFTLTISSLQAEDFAVYFCHQHSSNPLTFGQGTKLEIK
notes: Residues 1-20 were left out as the signal peptide, which is marked by boldface only
Q: B1 was tested. Which “IC50 CP Wieslab EIA” value [1] did it give?
A: The value was 5.9 nM.

Q: What about the “IC50 AP Wieslab EIA” value [2] of the same binder?
A: Its value is 347 nM.

Q: And the “CP IC50 (Wieslab)” value [3]?
A: The value was 38.6 nM.

Q: What about the “AP IC50 (Wieslab)” value [4] of the same binder?
A: The value was 551 nM.

Q: What about the Kd [5] of the same binder?
A: The Kd was 1.4 nM.

Q: What about the Kd [6] of the same binder?
A: Its Kd is 2.5 nM.

Q: What about the Kd [7] of the same binder?
A: Its Kd is 1.4 nM.

Q: What about the koff [7] of the same binder?
A: The koff was 0.00049 s⁻¹.

Q: And the kon [7]?
A: Its kon is 360000 M⁻¹ s⁻¹.

Q: And the Kd [8]?
A: Its Kd is 2.5 nM.

Q: What about the koff [8] of the same binder?
A: Its koff is 0.00017 s⁻¹.

Q: And the kon [8]?
A: The kon was 70000 M⁻¹ s⁻¹.

Q: And the “IC50 CP (Wieslab)” value [9]?
A: The value was 38.6 nM.

Q: What about the “IC50 AP (Wieslab)” value [10] of the same binder?
A: Its value is 551 nM.

Q: And the “Wieslab CP IC50, fold of purified anti-C1s Fab” value [11]?
A: The value was roughly 6 fold.

Q: And the “Wieslab AP IC50, fold of purified anti-Bb Fab” value [12]?
A: Its value is roughly 6 fold.

Q: What about the Kd [13] of the same binder?
A: The Kd was 1.3 nM.

Q: And the Kd [14]?
A: The Kd was 4.2 nM.

B2: parental anti-C1s IgG4 antibody VH3/Vκ2 (antibody, V domains shown)
VH: QVQLVQSGAEVKKPGASVKLSCTASGFNIKDDYIHWVKQAPGQGLEWIGRIDPADGHTKYAPKFQVKVTITADTSTSTAYLELSSLRSEDTAVYYCARYGYGREVFDYWGQGTTVTVSS
VL: DIVLTQSPDSLAVSLGERATISCKASQSVDYDGDSYMNWYQQKPGQPPKILIYDASNLESGIPARFSGSGSGTDFTLTISSLEPEDFAIYYCQQSNEDPWTFGGGTKVEIK
notes: IgG4, from WO 2018/071676; full chains of the mAb are not; also called anti-C1s mAb; VH3/VK2
Q: For B2, which Kd [15] is on record?
A: The Kd was 1.5 nM.

Q: What about the “Wieslab classical pathway IC50” value [16] of the same binder?
A: The value was 22 nM.

B3: parental anti-Bb Fab (Fab, V domains shown)
VH: EVQLVESGGGLVKPGGSLRLSCAASGFTFSNYAMSWVRQAPGKRLEWVATISNRGSYTYYPDSVKGRFTISRDNAKNSLYLQMNSLRAEDTALYYCARERPMDYWGQGTLVTVSS
VL: DIQMTQSPSTLSASVGDRVTITCKASQDVGTAVAWYQQKPGKAPKLLIYWASTRHTGVPDRFSGSGSGTDFTLTISSLQAEDFAVYFCHQHSSNPLTFGQGTKLEIKR
notes: also called Purified anti-Bb Fab
Q: For B3, which Kd [17] is on record?
A: Its Kd is 0.7 nM.

Q: And the Kd [18]?
A: Its Kd is 2.7 nM.

Q: What about the “AP IC50 (Wieslab)” value [4] of the same binder?
A: The value was 99 nM.

Q: What about the Kd [8] of the same binder?
A: Its Kd is 0.73 nM.

Q: What about the koff [8] of the same binder?
A: The koff was 0.00051 s⁻¹.

Q: And the kon [8]?
A: Its kon is 700000 M⁻¹ s⁻¹.

Q: And the “IC50 AP (Wieslab)” value [10]?
A: Its value is 144 nM.

Q: What about the “IC50 (nM), complement activation with CP and AP activated simultaneously in vitro” value [19] of the same binder?
A: Its value is 463 nM.

Q: What about the “Wieslab alternative pathway IC50” value [20] of the same binder?
A: Its value is 144 nM.

B4: parental anti-Bb IgG4 antibody VH6/Vκ7-IgG4v2 (antibody, V domains shown)
VH: B3 VH
VL: DIQMTQSPSTLSASVGDRVTITCKASQDVGTAVAWYQQKPGKAPKLLIYWASTRHTGVPDRFSGSGSGTDFTLTISSLQAEDFAVYFCHQHSSNPLTFGQGTKLEIK
notes: IgG4 (IgG4v2), from U.S. Pat. No. 11,242,382 and WO 2021/216458; full chains of the mAb are not; also called anti-Bb mAb
Q: Which results are given for B4?
A: Kd [21]: 7.3 nM; Wieslab alternative pathway IC50 [20]: 190 nM

B5: anti-Bb scFab (construct #4) (Fab)
chain: DIQMTQSPSTLSASVGDRVTITCKASQDVGTAVAWYQQKPGKAPKLLIYWASTRHTGVPDRFSGSGSGTDFTLTISSLQAEDFAVYFCHQHSSNPLTFGQGTKLEIKRTVAAPSVFIFPPSDEQLKSGTASVVCLLNNFYPREAKVQWKVDNALQSGNSQESVTEQDSKDSTYSLSSTLTLSKADYEKHKVYACEVTHQGLSSPVTKSFNRGECGGGGSGGGGSGGGGSGGGGSGGGGSGGGGSGGGGSEVQLVESGGGLVKPGGSLRLSCAASGFTFSNYAMSWVRQAPGKRLEWVATISNRGSYTYYPDSVKGRFTISRDNAKNSLYLQMNSLRAEDTALYYCARERPMDYWGQGTLVTVSSASTKGPSVFPLAPCSRSTSESTAALGCLVKDYFPEPVTVSWNSGALTSGVHTFPAVLQSSGLYSLSSVVTVPSSSLGTKTYTCNVDHKPSNTKVDKRV
notes: Single-chain Fab: LC-(G4S)7-HC (VH-CH1); there it stood in a mixture with the anti-C1s scFab; also called αBb scFab; Purified anti-Bb scFab
Q: For B5, which Kd [22] is on record?
A: Its Kd is 0.9 nM.

Q: What about the Kd [18] of the same binder?
A: Its Kd is 3.7 nM.

Q: And the “IC50 AP Wieslab EIA” value [2]?
A: The value was 193 nM.

Q: And the Kd [23]?
A: The Kd was 0.8 nM.

Q: And the koff [23]?
A: Its koff is 0.0002 s⁻¹.

Q: And the kon [23]?
A: The kon was 260000 M⁻¹ s⁻¹.

Q: And the “AP IC50 (Wieslab), mixture of scFabs from construct #9” value [4]?
A: Its value is 224 nM.

Q: What about the Kd [8] of the same binder?
A: Its Kd is 0.7 nM.

Q: And the koff [8]?
A: Its koff is 0.00049 s⁻¹.

Q: And the kon [8]?
A: The kon was 670000 M⁻¹ s⁻¹.

Q: What about the Kd (cynomolgus Bb) of the same binder?
A: Its Kd is 14.8 nM.

Q: What about the “IC50 AP (Wieslab)” value [10] of the same binder?
A: The value was 193 nM.

Q: And the “IC50 AP (Wieslab), mixture of scFabs from construct #9” value [10]?
A: The value was 224 nM.

Q: What about the “Wieslab AP IC50 of #9-derived fragments, fold of purified anti-Bb Fab” value [12] of the same binder?
A: The value was roughly 3 fold.

Q: And the “IC50 (nM), complement activation with CP and AP activated simultaneously in vitro” value [19]?
A: The value was 633 nM.

Q: And the Kd [14]?
A: Its Kd is 0.7 nM.

Q: What about the “Wieslab alternative pathway IC50” value [20] of the same binder?
A: The value was 190 nM.
